{
  "source": "patent US20210356479A1",
  "about": "(BLOODWORKS, published 2021)",
  "binders": {"B1": {"name": "PUMA 1 human IgG1-03 isoallotype (antibody)", "heavy": "EVQLQQSGPELVKPGASVKMSCKASGYTFTDYYMKWVKQSHGKSLEWIGDLNPNNGDTFYNQKFKGKATLTVDKSSSTAYIQLNSLTSEDSAVYYCAREAGSSFGSSCNYWGQGTTLTVS", "light": "SVVMTQTPKFLLVSAGDRVTITCKASQTVSKDVAWYQQQPGQSPKLLIYYASNRYTGVPDRFTGSGYGTDFTFTISTVQAEDLAVYFCQQDYSSPYTFGGGTKLEIK", "notes": "Isoallotype named in CLM-00007; not shown: human IgG1 heavy chain constant region, isoallotype IGHG1*03; human kappa light chain constant region (vector pFUSE2-CLIg-hk)"}, "B2": {"name": "PUMA 1 human IgG1-05 isoallotype (antibody)", "heavy": "B1 heavy", "light": "B1 light", "notes": "Isoallotype named in CLM-00007; not shown: human IgG1 heavy chain constant region, isoallotype IGHG1*05; human kappa light chain constant region (vector pFUSE2-CLIg-hk)"}, "B3": {"name": "PUMA 1 human IgG1-07 isoallotype (antibody)", "heavy": "B1 heavy", "light": "B1 light", "notes": "Isoallotype named in CLM-00007; not shown: human IgG1 heavy chain constant region, isoallotype IGHG1*07; human kappa light chain constant region (vector pFUSE2-CLIg-hk)"}, "B4": {"name": "PUMA 1 human IgG1-08 isoallotype (antibody)", "heavy": "B1 heavy", "light": "B1 light", "notes": "Isoallotype named in CLM-00007; not shown: human IgG1 heavy chain constant region, isoallotype IGHG1*08; human kappa light chain constant region (vector pFUSE2-CLIg-hk)"}, "B5": {"name": "PUMA 1 human IgG1-01v2 isoallotype (antibody)", "heavy": "B1 heavy", "light": "B1 light", "notes": "Isoallotype named in CLM-00007; also called IGHG1*01v2; not shown: human IgG1 heavy chain constant region, isoallotype IGHG1*01v2; human kappa light chain constant region (vector pFUSE2-CLIg-hk)"}, "B6": {"name": "PUMA 1 human IgG1-04v2 isoallotype (antibody)", "heavy": "B1 heavy", "light": "B1 light", "notes": "Isoallotype named in CLM-00007; also called IGHG1*04v2; not shown: human IgG1 heavy chain constant region, isoallotype IGHG1*04v2; human kappa light chain constant region (vector pFUSE2-CLIg-hk)"}, "B7": {"name": "PUMA 1 human IgG2-02 isoallotype (antibody)", "heavy": "B1 heavy", "light": "B1 light", "notes": "Isoallotype named in CLM-00007; not shown: human IgG2 heavy chain constant region, isoallotype IGHG2*02; human kappa light chain constant region (vector pFUSE2-CLIg-hk)"}, "B8": {"name": "PUMA 1 human IgG2-04 isoallotype (antibody)", "heavy": "B1 heavy", "light": "B1 light", "notes": "Isoallotype named in CLM-00007; not shown: human IgG2 heavy chain constant region, isoallotype IGHG2*04; human kappa light chain constant region (vector pFUSE2-CLIg-hk)"}, "B9": {"name": "PUMA 1 human IgG2-06 isoallotype (antibody)", "heavy": "B1 heavy", "light": "B1 light", "notes": "Isoallotype named in CLM-00007; not shown: human IgG2 heavy chain constant region, isoallotype IGHG2*06; human kappa light chain constant region (vector pFUSE2-CLIg-hk)"}, "B10": {"name": "PUMA 1 human IgG3-03 isoallotype (antibody)", "heavy": "B1 heavy", "light": "B1 light", "notes": "also called PUMA1-IgG3-03; not shown: human kappa light chain constant region (vector pFUSE2-CLIg-hk)"}, "B11": {"name": "PUMA 1 human IgG3-04 isoallotype (antibody)", "heavy": "B1 heavy", "light": "B1 light", "notes": "Isoallotype named in CLM-00007; not shown: human IgG3 heavy chain constant region, isoallotype IGHG3*04; human kappa light chain constant region (vector pFUSE2-CLIg-hk)"}, "B12": {"name": "PUMA 1 human IgG3-06 isoallotype (antibody)", "heavy": "B1 heavy", "light": "B1 light", "notes": "Isoallotype named in CLM-00007; also called PUMA1-IgG3-6; not shown: human IgG3 heavy chain constant region, isoallotype IGHG3*06; human kappa light chain constant region (vector pFUSE2-CLIg-hk)"}, "B13": {"name": "PUMA 1 human IgG3-08 isoallotype (antibody)", "heavy": "B1 heavy", "light": "B1 light", "notes": "Isoallotype named in CLM-00007; not shown: human IgG3 heavy chain constant region, isoallotype IGHG3*08; human kappa light chain constant region (vector pFUSE2-CLIg-hk)"}, "B14": {"name": "PUMA 1 human IgG1 (canonical, isoallotype IgG1-01) (antibody)", "heavy": "not shown", "light": "B1 light", "notes": "also called PUMA1-IgG1; PUMA 1 IgG1; not shown: human kappa light chain constant region (vector pFUSE2-CLIg-hk)"}, "B15": {"name": "PUMA 1 human IgG2 (canonical, isoallotype IgG2-01) (antibody)", "heavy": "EVQLQQSGPELVKPGASVKMSCKASGYTFTDYYMKWVKQSHGKSLEWIGDLNPNNGDTFYNQKFKGKATLTVDKSSSTAYIQLNSLTSEDSAVYYCAREAGSSFGSSCNYWGQGTTLTVSASTKGPSVFPLAPCSRSTSESTAALGCLVKDYFPEPVTVSWNSGALTSGVHTFPAVLQSSGLYSLSSVVTVPSSNFGTQTYTCNVDHKPSNTKVDKTVERKCCVECPPCPAPPVAGPSVFLFPPKPKDTLMISRTPEVTCVVVDVSHEDPEVQFNWYVDGVEVHNAKTKPREEQFNSTFRVVSVLTVVHQDWLNGKEYKCKVSNKGLPAPIEKTISKTKGQPREPQVYTLPPSREEMTKNQVSLTCLVKGFYPSDIAVEWESNGQPENNYKTTPPMLDSDGSFFLYSKLTVDKSRWQQGNVFSCSVMHEALHNHYTQKSLSLSPGK", "light": "B1 light", "notes": "also called PUMA1-IgG2; PUMA 1 IgG2; not shown: human kappa light chain constant region (vector pFUSE2-CLIg-hk)"}, "B16": {"name": "PUMA 1 human IgG3 (canonical, isoallotype IgG3-01) (antibody)", "heavy": "EVQLQQSGPELVKPGASVKMSCKASGYTFTDYYMKWVKQSHGKSLEWIGDLNPNNGDTFYNQKFKGKATLTVDKSSSTAYIQLNSLTSEDSAVYYCAREAGSSFGSSCNYWGQGTTLTVSASTKGPSVFPLAPCSRSTSGGTAALGCLVKDYFPEPVTVSWNSGALTSGVHTFPAVLQSSGLYSLSSVVTVPSSSLGTQTYTCNVNHKPSNTKVDKRVELKTPLGDTTHTCPRCPEPKSCDTPPPCPRCPEPKSCDTPPPCPRCPEPKSCDTPPPCPRCPAPELLGGPSVFLFPPKPKDTLMISRTPEVTCVVVDVSHEDPEVQFKWYVDGVEVHNAKTKPREEQYNSTFRVVSVLTVLHQDWLNGKEYKCKVSNKALPAPIEKTISKTKGQPREPQVYTLPPSREEMTKNQVSLTCLVKGFYPSDIAVEWESSGQPENNYNTTPPMLDSDGSFFLYSKLTVDKSRWQQGNIFSCSVMHEALHNRFTQKSLSLSPGK", "light": "B1 light", "notes": "also called PUMA1-IgG3; PUMA 1 IgG3; not shown: human kappa light chain constant region (vector pFUSE2-CLIg-hk)"}, "B17": {"name": "PUMA 1 human IgG4 (canonical, isoallotype IgG4-01) (antibody)", "heavy": "EVQLQQSGPELVKPGASVKMSCKASGYTFTDYYMKWVKQSHGKSLEWIGDLNPNNGDTFYNQKFKGKATLTVDKSSSTAYIQLNSLTSEDSAVYYCAREAGSSFGSSCNYWGQGTTLTVSASTKGPSVFPLAPCSRSTSESTAALGCLVKDYFPEPVTVSWNSGALTSGVHTFPAVLQSSGLYSLSSVVTVPSSSLGTKTYTCNVDHKPSNTKVDKRVESKYGPPCPSCPAPEFLGGPSVFLFPPKPKDTLMISRTPEVTCVVVDVSQEDPEVQFNWYVDGVEVHNAKTKPREEQFNSTYRVVSVLTVLHQDWLNGKEYKCKVSNKGLPSSIEKTISKAKGQPREPQVYTLPPSQEEMTKNQVSLTCLVKGFYPSDIAVEWESNGQPENNYKTTPPVLDSDGSFFLYSRLTVDKSRWQEGNVFSCSVMHEALHNHYTQKSLSLSPGK", "light": "B1 light", "notes": "also called PUMA1-IgG4; PUMA 1 IgG4; not shown: human kappa light chain constant region (vector pFUSE2-CLIg-hk)"}},
  "note": "Numbering of substitutions follows the chain as printed.",
  "data": [
    {"target": "T1, human Kell glycoprotein, k form (KEL2) (human, UniProt P23276 1-732)", "T1 construct": "whole, on cells; On human k/k or K-k+ RBCs; also called k antigen", "T1 sequence (looked up)": "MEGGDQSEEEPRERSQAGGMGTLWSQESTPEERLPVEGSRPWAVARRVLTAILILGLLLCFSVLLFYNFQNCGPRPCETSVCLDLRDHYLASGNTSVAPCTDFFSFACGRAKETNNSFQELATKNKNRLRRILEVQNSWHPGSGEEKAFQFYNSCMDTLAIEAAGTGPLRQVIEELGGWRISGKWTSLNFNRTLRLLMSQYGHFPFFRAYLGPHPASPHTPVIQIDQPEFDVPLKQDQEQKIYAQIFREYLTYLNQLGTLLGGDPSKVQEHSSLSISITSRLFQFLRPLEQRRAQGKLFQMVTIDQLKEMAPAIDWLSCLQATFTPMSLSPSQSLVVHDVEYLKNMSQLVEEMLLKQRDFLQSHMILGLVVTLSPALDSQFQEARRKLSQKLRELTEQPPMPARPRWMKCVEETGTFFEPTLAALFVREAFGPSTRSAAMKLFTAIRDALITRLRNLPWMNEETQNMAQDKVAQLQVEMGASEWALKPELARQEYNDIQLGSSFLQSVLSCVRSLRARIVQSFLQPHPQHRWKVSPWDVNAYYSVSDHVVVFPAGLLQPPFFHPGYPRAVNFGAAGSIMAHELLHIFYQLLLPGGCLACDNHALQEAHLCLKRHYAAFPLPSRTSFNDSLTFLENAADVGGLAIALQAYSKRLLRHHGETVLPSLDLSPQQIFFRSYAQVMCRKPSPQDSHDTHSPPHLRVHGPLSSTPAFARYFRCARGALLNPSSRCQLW", "test": "flow cytometry on human K-k+ RBCs", "values": [
      {"binder": "B1", "binding result": "no binding"},
      {"binder": "B2", "binding result": "no binding"},
      {"binder": "B3", "binding result": "no binding"},
      {"binder": "B4", "binding result": "no binding"},
      {"binder": "B5", "binding result": "no binding"},
      {"binder": "B6", "binding result": "no binding"},
      {"binder": "B7", "binding result": "no binding"},
      {"binder": "B8", "binding result": "no binding"},
      {"binder": "B9", "binding result": "no binding"},
      {"binder": "B10", "binding result": "no binding"},
      {"binder": "B11", "binding result": "no binding"},
      {"binder": "B12", "binding result": "no binding"},
      {"binder": "B13", "binding result": "no binding"},
      {"binder": "B14", "binding result": "no binding"},
      {"binder": "B15", "binding result": "no binding"},
      {"binder": "B16", "binding result": "no binding"},
      {"binder": "B17", "binding result": "no binding"}
    ]},
    {"target": "T2, human Kell glycoprotein, K form (KEL1) (human, UniProt P23276 1-732)", "T2 construct": "whole, on cells; On human K/K or K+k+ RBCs and on RBCs of K transgenic mice; also called K antigen; K variant", "T2 sequence (looked up)": "T1 sequence (looked up) with T193M", "test": "flow cytometry on human K+k+ RBCs, detected with polyclonal anti-IgG", "experimental": "Flow cytometry consisted of incubating test RBCs with PUMA 1 variants, followed by the anti-IgG being evaluated, followed by a detection reagent. Test RBCs included RBCs from K mice, wild-type mice, and reagent RBCs from humans with the phenotype of (K+k+) or (K−k+). Test RBCs were resuspended in 50 microliters of supernatants of PUMA 1 isoallotypes; in some cases a 1/10 dilution in phosphate buffered saline (PBS) was used. For purified IgG1-IgG4 PUMA 1, the antibodies were diluted in PBS at the indicated concentrations. The tested anti-IgG reagents were used undiluted. Detection reagents consisted of donkey anti-rabbit conjugated to phycoerythrin at a 1/200 dilution (Affymetrix cat #12-4739-81, Santa Clara, Calif.), goat anti-mouse IgM conjugated to allophycocyanin at a 1/100 dilution (BD Biosciences, cat #550826, San Jose, Calif.), and goat anti-mouse Igs conjugated to allophycocyanin at a 1/100 dilution (SouthernBiotech cat #1020-11s, Birmingham, Ala.). All anti-IgG subclass antibodies were conjugated to phycoerythrin, were purchased from SouthernBiotech (catalog numbers 9056-09, 9070-09, 9210-09, 9200-09), and were used at a dilution of 1.200. All incubations were performed for 30 min at room temperature, followed by three washes with PBS. All flow cytometry was performed on an Accuri 4 color cytometer (BD biosciences, San Jose Calif.) and all data was analyzed with Flo-Jo version 10.\nTo assess the sensitivity of commercially available anti-IgG preparations for different human IgG subclasses bound to RBCs, K+k+ RBCs were first incubated with PUMA 1 of the different human IgG subclasses, followed by incubation with anti-IgG. Treated RBCs were then stained with a fluorescently labeled antibody specific for the species in which the anti-IgG was generated (and non-reactive with human IgG). For each anti-IgG, the same secondary antibody was used to detect binding of the anti-IgG to each human PUMA 1 IgG subclass. To assess relative sensitivity, titrations of each PUMA 1 IgG subclass were carried out and samples were analyzed by flow cytometry using mean fluorescent intensity (MFI) to quantify staining (FIGS. 28A, 28B).", "values": [
      {"binder": "B1", "binding result": "binds"},
      {"binder": "B2", "binding result": "binds"},
      {"binder": "B3", "binding result": "binds"},
      {"binder": "B4", "binding result": "binds"},
      {"binder": "B5", "binding result": "binds"},
      {"binder": "B6", "binding result": "binds"},
      {"binder": "B7", "binding result": "binds"},
      {"binder": "B8", "binding result": "binds"},
      {"binder": "B9", "binding result": "binds"},
      {"binder": "B10", "binding result": "binds"},
      {"binder": "B11", "binding result": "binds"},
      {"binder": "B12", "binding result": "binds"},
      {"binder": "B13", "binding result": "binds"}
    ]}
  ]
}
